# Assay: soluble on expression in E. coli; label from the status in PepcDB or PDB records
row,Sequence,soluble on expression in E. coli
1,MSLDGEQTTREPVLKAMFLADTHLLGEFLGHWLDKLRREWQMERAFQTALWLLQPEVVFILGDIFDEGKWSTPEAWADDVERFQKMFRHPSHVQLKVVAGNHDIGFHYEMNTYKVERFEKVFSSERLFSWKGINFVMVNSVALNGDGCGICSETEAELIEVSHRLNCSREARGSSRCGPGPLLPTSAPVLLQHYPLYRRSDANCSGEDAAPAEERDIPFKENYDVLSREASQKLLWWLQPRLVLSGHTHSACEVHHGGRVPELSVPSFSWRNRNNPSFIMGSITPTDYTLSKCYLPREEGHHHHHH,not soluble
2,GSHMPAPHGGILQDLIARDALKKNELLSEAQSSDILVWNLTPRQLCDIELILNGGFSPLTGFLNENDYSSVVTDSRLADGTLWTIPITLDVDEAFANQIKPDTRIALFQDDEIPIAILTVQDVYKPNKTIEAEKVFRGDPEHPAISYLFNVAGDYYVGGSLEAIQLPQHYDYPGLRKTPAQLRLEFQSRQWDRVVAFQTRNPMHRAHRELTVRAAREANAKVLIHPVVGLTKPGDIDHHTRVRVYQEIIKRYPNGIAFLSLLPLAMRMSGDREAVWHAIIRKNYGASHFIVGRDHAGPGKNSKGVDFYGPYDAQELVESYKHELDIEVVPFRMVTYLPDEDRYAPIDQIDTTKTRTLNISGTELRRRLRVGGEIPEWFSYPEVVKILRESNPPRPKQGFSIVLGNSLTVSREQLSIALLSTFLQFGGGRYYKIFEHNNKTELLSLIQDFIGSGSGLIIPNQWEDDKDSVVGKQNVYLLDTSSSADIQLESADEPISHIVQKVVLFLEDNGFFVF,soluble
3,MGSDKIHHHHHHMLQNGYVPCSFRISMAGMDVEFNTKNDVIKAYLSRPDDGMRHPGIVVIHEIFGLDDHIRSVADRISREGYVALAPDLFSSHELSAKITREGILESMKFIMSIPPEKQRDDSYRNSLLNSMPEEKRRIMSSTYSALFVNRPTQLLTEYLEYAVDYLKGIGVTSVGSVGFCFGGGMSANLGCTGKVDATVIFYGENPDPIDKVKGMKSVLGLYAGEDHRITSRVPELLAKLIEFSIPVTIKVYPGAYHAFFNDTRPQIYNEAAAKDAWNMMLYFFRTQLGP,not soluble
4,MHHHHHHSSGVDLGTENLYFQSMGEVVMSQAIQPAHATARGELSAGQLLKWIDTTACLAAEKHAGVSCVTASVDDIQFEETARVGQVITIKAKVTRAFSTSMEISIKVMVQDMLTGIEKLVSVAFSTFVAKPVGKEKIHLKPVTLLTEQDHVEHNLAAERRKVRLQHEDTFNNLMKESSKFDDLIFDEEEGAVSTRGTSVQSIELVLPPHANHHGNTFGGQIMAWMETVATISASRLCWAHPFLKSVDMFKFRGPSTVGDRLVFTAIVNNTFQTCVEVGVRVEAFDCQEWAEGRGRHINSAFLIYNAADDKENLITFPRIQPISKDDFRRYRG,soluble
5,MGSDKIHHHHHHMIRINVVGFKGGSGKSTISYHLARQLSEYYNVVLVDKTYSGTISRIYNINNNIFSFLKGRNELFYINKNNLSVINMSFLNEDDLNGIDFNAFKYLYSKLTKDSDIVIVDHSSIPHDFATEIELKAFMENFRNFAYNTVLVLSGDEIPIKKYLNYTVLLNDFVKNYAEKILGISLPTDVKFLKIVAVIINKILKGQESKLEEFIRGDEILQRSARFIIPYYLSLTQRHFKDIDPPKEISDITRYILDFLREPTSIL,not soluble
6,EKMTRDEIEYMLTNSEETLEAEEIEMLQGIFSLDEMMAREVMVPRTDAFMIDINNDAQSNIEGILSQNFSRVPVFDDDKDRVVGVLHTKRLLEAGFKTGFDTIDLRKILQEPLFVPETIFVDDLLKALRNTQNQMAILLDEYGGVAGLVTLEDLLEEIVGEID,soluble
7,MNIGIIGTGNMGNILIDAFLETRAVKPSCLTIINRTPAKAYHIKEKYPSVHIAKTIPEVIEQSQLIFICVKPIDIYPILKKYAEHFSDETCLVSITSPISPSQLETLVPCHVARIIPSITNRALSGASLFTFGDNCSEEWQQKLLRLFKNISTPLVIEEDITRVSSDIASCGPAFFSYLLQCFINAAVDKTNITHEEATTLVSEMVVGMGKLLEKEIFTLPTLQEKVCVKGGVTGEGIRVLEEHVGDMFHKLIERTHEKFDEDLECVDQQFNKHTLEHHHHHH,soluble
8,MHALHFSASDKAALYREVLPQIESVVADETDWVANLANTAAVLKEAFGWFWVGFYLVDTRSDELVLAPFQGPLACTRIPFGRGVCGQAWAKGGTVVVGDVDAHPDHIACSSLSRSEIVVPLFSDGRCIGVLDADSEHLAQFDETDALYLGELAKILEKRFEASRQAV,soluble
9,GMARRDISGAVDFAYLEGFAAGDFAVVDEVLALFREQAALWAPMLDPTHPGWKDAVHTVKGAARGVGAFNLGEVCERCEAGQESLEGVRTALDAALLDIAAYAHEQALRSLKG,soluble
10,MSLSQPQPPSRLLVMKFGGTNMQSAHAIRHSASLAGRSVREGVKVVVVVSAMAGVTNGLLHLADAAQSGDIARANDEIAALRTRHFTAAQELGAAPDSETVRELRELHETLRQAVYGVYLLRELTPRSRDLIVAFGERLSAPLMSLALEQSGLRARHLTGGEAGILTDTNFGNARPLPGTYERVGDRLSGFLSAGVTPVIAGFMGETEQGAITTLGRGGTDFSATIVGKALGADEVWAWKDVDGVMSADPRVVGDASNIGVLSYGEVMELAYFGAKVLHPLAVTPLQDSGIPLRVKSAADPDFAGTLVRSQAEEIPGRPVKAVTAIKNVSLLTVTGAGVLGVPEVIASVFTAIARENITLLMVSQSSSMSNVSLAVPSADAARALQALRAGLSSELNVEETNGVAVLAIVGSGMRGQQGVSARLFTALASEDINILMISQGSSELNISVALSGEEVDRATAAVHAAFTLSQPEGHHHHHH,not soluble
11,MGSDKIHHHHHHMKVQYSFEREFEELMSDLLSKYGYEMFQMDGLGDQLDVVKFTEDFVRRGIIESTIDANANVRVTNISTYFIEISKPHTYLYSLYRIWQKMKEMFGKGVADEFVEAQINGAVYLHDRHHAALMPYCFAYTLKPIVEKGLPFIKTIKSEPAKHLSTFIQHVIQFVMFASNQSSGAVGLPDFFVWMWYFVKKDLKEGIIPRDKLDWYIEQHFQILTYSLNQPIRTTQSPYTNFTYLDRNYIKAIFEGERYPDGSLITDHVEDIIALQKHYWEWVSRERERQMFTFPVLTASLLYKDGKFLDEDSARFINKINMKWQDTNWYISDSIDAVASCCRLTSSTQTLKKFSLSSEEEEKLKGRMNSIGGSDLNIGSFKVITVNLPRIALESGGDREKYLQILRHRVQLIKKALAAVREIIKERISEGLLPLYENGLMLLNRQYGTIGVTGVWESASIMGLTTEDIDGLKYTEEGEVFVDNVLDTIREEAEKGYHEYGFTFNIEQVPAEKAAVTLAQKDRFLFGEKQPFEIYSNQWVPLMANTDVLNRIRYSGKWDKKVSGGAILHINLGESFKTEEESFNMVKMIADMGVMYFAFNTKISVCEDGHAFYGERCPVCGKAKVDEYMRIVGYLVPVSAFNKERREIEYPRRQFYDSLTIRR,not soluble
12,MGSDKIHHHHHHMKTVNVHGFEASSKEEFQVIQSSLVKRIKLISDFKEEDIKLCAGVDLAYWTKGEKQYGVCCIIVIDYNTGEIIEKAYDYGEIEVPYMPGFLAFRELPLVIKTVKKLKNEPDIFMFDGNGYLHYNHMGIATHASFFLNKPTIGVAKSYLKVAGVDFEMPESFEGAFKDIVINEEVYGRVLRTKKDVKPIFVSCGNYIDLETCTKICSKLINNDSRLPITVRLADLETHKRRSELS,not soluble

# From the DeepSol protein solubility set
